Laboratory results reported in PMC2213610 (The Journal of Cell Biology, 2008).

B1: His6-VASP-AAA (natural protein)
chain: MSETVICSSRATVMLYDDGNKRWLPAGTGPQAFSRVQIYHNPTANSFRVVGRKMQPDQQVVINCAIVRGVKYNQATPNFHQWRDARQVWGLNFGSKEDAAQFAAGMASALEALEGGGPPPPPALPTWSVPNGPSPEEVEQQKRQQPGPSEHIERRVANAGGPPAPPAGGPPPPPGPPPPPGPPPPPGLPPSGVPAAAHGAGGGPPPAPPLPAAQGPGGGGAGAPGLAAAIAGAKLRKVAKQEEASGGPTAPKAESGRSGGGGLMEEMNAMLARRRKAAQVGEKTPKDESANQEEPEARVPAQSESVRRPWEKNSTTLPRMKSSSSVTTSETQPCTPSSSDYSDLQRVKQELLEEVKKELQKVKEEIIEAFVQELRKRGSP
B2: His6-VASP-AAE, purified recombinant (natural protein)
chain: MSETVICSSRATVMLYDDGNKRWLPAGTGPQAFSRVQIYHNPTANSFRVVGRKMQPDQQVVINCAIVRGVKYNQATPNFHQWRDARQVWGLNFGSKEDAAQFAAGMASALEALEGGGPPPPPALPTWSVPNGPSPEEVEQQKRQQPGPSEHIERRVANAGGPPAPPAGGPPPPPGPPPPPGPPPPPGLPPSGVPAAAHGAGGGPPPAPPLPAAQGPGGGGAGAPGLAAAIAGAKLRKVAKQEEASGGPTAPKAESGRSGGGGLMEEMNAMLARRRKAEQVGEKTPKDESANQEEPEARVPAQSESVRRPWEKNSTTLPRMKSSSSVTTSETQPCTPSSSDYSDLQRVKQELLEEVKKELQKVKEEIIEAFVQELRKRGSP
B3: His6-VASP-ADA, purified recombinant (natural protein)
chain: MSETVICSSRATVMLYDDGNKRWLPAGTGPQAFSRVQIYHNPTANSFRVVGRKMQPDQQVVINCAIVRGVKYNQATPNFHQWRDARQVWGLNFGSKEDAAQFAAGMASALEALEGGGPPPPPALPTWSVPNGPSPEEVEQQKRQQPGPSEHIERRVANAGGPPAPPAGGPPPPPGPPPPPGPPPPPGLPPSGVPAAAHGAGGGPPPAPPLPAAQGPGGGGAGAPGLAAAIAGAKLRKVDKQEEASGGPTAPKAESGRSGGGGLMEEMNAMLARRRKAAQVGEKTPKDESANQEEPEARVPAQSESVRRPWEKNSTTLPRMKSSSSVTTSETQPCTPSSSDYSDLQRVKQELLEEVKKELQKVKEEIIEAFVQELRKRGSP
B4: VASP peptide F2 (peptide)
peptide: PPAGGPPPPPGPPPP
B5: VASP peptide F8 (peptide)
peptide: PPPPGPPPPPGPPPP
B6: VASP peptide F8 with P171 changed to alanine (peptide)
peptide: APPPGPPPPPGPPPP
B7: VASP peptide F8 with P174 changed to alanine (peptide)
peptide: PPPAGPPPPPGPPPP
B8: VASP peptide F8 with P182 changed to alanine (peptide)
peptide: PPPPGPPPPPGAPPP
B9: VASP peptide F8 with P185 changed to alanine (peptide)
peptide: PPPPGPPPPPGPPPA
B10: VASP peptide F8 with G175 changed to alanine (peptide)
peptide: PPPPAPPPPPGPPPP
B11: VASP peptide F8 with G181 changed to alanine (peptide)
peptide: PPPPGPPPPPAPPPP
B12: VASP peptide F8 with P172 changed to alanine (peptide)
peptide: PAPPGPPPPPGPPPP
B13: VASP peptide F8 with P173 changed to alanine (peptide)
peptide: PPAPGPPPPPGPPPP
B14: VASP peptide F8 with P183 changed to alanine (peptide)
peptide: PPPPGPPPPPGPAPP
B15: VASP peptide F8 with P184 changed to alanine (peptide)
peptide: PPPPGPPPPPGPPAP

target: T1, GST-SPCN_SH3 (UniProt Q13813 970-1025); test: pull-down

**Q.** Does B1 bind?
**A.** Result: binds

**Q.** Does B2 bind?
**A.** Result: binds

**Q.** Does B3 bind?
**A.** Result: binds

target: T1, GST-SPCN_SH3; test: peptide or protein array

**Q.** Does B4 bind?
**A.** Result: binds

**Q.** Does B5 bind?
**A.** Result: binds

**Q.** Does B6 bind?
**A.** Result: binds

**Q.** Does B7 bind?
**A.** Result: binds

**Q.** Does B8 bind?
**A.** Result: binds

**Q.** Does B9 bind?
**A.** Result: binds

**Q.** Does B10 bind?
**A.** Result: binds

**Q.** Does B11 bind?
**A.** Result: binds

**Q.** Does B12 bind?
**A.** Result: binds

**Q.** Does B13 bind?
**A.** Result: binds

**Q.** Does B14 bind?
**A.** Result: binds

**Q.** Does B15 bind?
**A.** Result: binds
